# In US9090676B2, “Method for treating Helicobacter pylori infections” (priority 2006, dated 2015):
# “Also recorded” adds a separate entry of the source.
# B1: recombinant HPGGT: recombinant His-tagged gamma glutamyl transpeptidase of H. pylori expressed in E. coli (protein, listed as Helicobacter pylori)
# chain: MRRSFLKTIGLGVIALFLGLLNPLSAASYPPIKNTKVGLALSSHPLASEIGQKVLEEGGNAIDAAVAIGFALAVVHPAAGNIGGGGFAVIHLANGENVALDFREKAPLKATKNMFLDKQGNVVPKLSEDGYLAAGVPGTVAGMEAMLKKYGTKKLSQLIDPAIKLAENGYAISQRQAETLKEARERFLKYSSSKKYFFKKGHLDYQEGDLFVQKDLAKTLNQIKTLGAKGFYQGQVAELIEKDMKKNGGIITKEDLASYNVKWRKPVVGSYRGYKIISMSPPSSGGTHLIQILNVMENADLSALGYGASKNIHIAAEAMRQAYADRSVYMGDADFVSVPVDKLINKAYAKKIFDTIQPDTVTPSSQIKPGMGQLHEGSNTTHYSVADRWGNAVSVTYTINASYGSAASIDGAGFLLNNEMDDFSIKPGNPNLYGLVGGDANAIEANKRPLSSMSPTIVLKNNKVFLVVGSPGGSRIITTVLQVISNVIDYNMNISEAVSAPRFHMQWLPDELRIEKFGMPADVKDNLTKMGYQIVTKPVMGDVNAIQVLPKTKGSVFYGSTDPRKEF
# modifications: His-tag
# notes: recombinant His-tagged gamma glutamyl transpeptidase of H. pylori expressed in E. coli
# Assays:
# Jurkat T cells [1] = assay: Analysis of apoptosis (Annexin V-FITC/PI, FACS); type: cell-based; settings: 1 μM, 24 h
# Protocol: 5×10^5 Jurkat T cells were treated as indicated. After 24 h cells were harvested by centrifugation, washed, resuspended in 500 μl AnnexinV-binding buffer (10 mM HEPES/NaOH, pH7.4, 140 mM NaCl, 2.5 mM CaCl2) and stained for 10 min each with 5 μl recombinant Annexin V-FITC (Caltag, Burlingame, Calif.) and 0.5 μg/ml PI at room temperature in the dark. Apoptotic cells were measured by FACS analysis (see above). Data were analyzed using Cell Quest software.
# HPGGT = assay: Immunization of animals, sera assayed for inhibition of GGT catalytic activity; type: in vivo, Helicobacter pylori; settings: mice, sera taken 6 weeks after immunization
# Source text: FIG. 9 is a diagram indicating the inhibitory effect of sera from immunized or infected mice on enzymatic activity of HPGGT. Mice were immunized with the indicated formulations or received PBS as control or were infected with live H. pylori. Sera were taken from tail veins 6 weeks after immunization or infection and assayed for inhibitory activity towards GGT catalytic activity.
# (§1) The assay for GGT activity was adapted from the method of Meister et al.^27 Briefly, reaction buffer consisting of 20 mM glycyl-glycine (Sigma) as acceptor, 2.5 mM L-γ-glutamyl-p-nitroanilide (Calbiochem, Schwalbach, Germany) as donor substrate and 100 mM Tris-HCl (pH 8.0) was prepared. In some experiments pH of assay buffer was varied between 2 and 10. Supernatants of different H. pylori strains, purified recombinant HPGGT or equine kidney GGT (Sigma) were added and the reaction proceeded at 37° C. for 30 min. The release of p-nitroanilide was monitored by spectrophotometry at 405 nm. One unit of activity was defined as the quantity of enzyme that released 1 μmol of p-nitroanilide per min and per mg of protein at 37° C.
# [2] = tested on: gamma glutamyl transpeptidase of Helicobacter pylori (HPGGT); assay: GGT activity assay: inhibition of GGT by acivicin; type: biochemical
# Protocol: as §1
# This compound acts as an irreversible and competitive inhibitor of GGT. […] Similar results were obtained for recombinant HPGGT (data not shown).
# human PBMC = assay: Cell proliferation assay (3H-thymidine incorporation), stimulated PBMC; type: cell-based
# Protocol: Isolation of peripheral blood lymphocytes (PBMC) was performed as described previously^3. All cells were incubated at 37° C. with 5% CO2. Jurkat T cells and PBMC were cultured in RPMI 1640 (Invitrogen, Karlsruhe, Germany) with 10% FCS. EL-4 T cells were cultured in DMEM (Invitrogen) supplemented with 10% horse serum (Cambrex, Verviers, Belgium).
# Cells (10^5 PBMC, purified primary T cells or 10^4 Jurkat/EL-4 cells/well) were cultured in 96-well flat-bottom plates in complete medium. PBMC were stimulated in triplicate with PMA (20 ng/ml; Sigma) and Ionomycin (100 ng/ml; Sigma) and all cells were grown with or without indicated total protein concentrations of H. pylori supernatants or recombinant proteins. Primary human T cells were stimulated with either PMA/Ionomycin as described above or with anti-CD3/CD28 beads (Invitrogen) at 1 bead per T cell. Cellular proliferation was determined after 48 h by methyl-[^3H]-thymidine (GE Healthcare) incorporation using a Packard Direct Beta Counter Matrix 9600 (Packard Instruments Co, Downer's Grove, Ill.).
# [3] = GGT activity assay: catalytic activity of GGT proteins and fractions; type: biochemical
# Protocol: as §1
# IL-2 = IL-2 ELISA of PBMC supernatants; type: cell-based, human; settings: PBMC stimulated with PMA and Ionomycin, 24 h, compared to stimulated control
# Protocol: (§2) PBMC (5×10^5 each) were treated for 24 h as depicted. At indicated time points cells were removed by centrifugation and supernatants were analyzed for amounts of IL-2 (eBioscience, San Diego, Calif.) and IFN-γ (Biosource, Solingen, Germany) by ELISA according to the manufacturer's instructions. The lower limits of detection were 4 pg/ml.
# (§3) To date so far nothing was known about a role of HPGGT during suppression of the host's immune response. The inhibition of lymphocyte proliferation by HPGGT reported here might result from interference with cytokine secretion of human PBMCs. To test this hypothesis, cells were stimulated with PMA and Ionomycin and incubated with or without H. pylori wild-type and ΔGGT supernatants or recombinant HPGGT at different concentrations for 24 h. […] In addition secretion of IFN-γ was not reduced (FIG. 5B).
# IFN-γ = IFN-γ ELISA of PBMC supernatants; type: cell-based, human; settings: PBMC stimulated with PMA and Ionomycin, 24 h
# Protocol: as §2, §3
# Jurkat T cells [4] = assay: Immunoblotting of cell cycle regulatory and signaling proteins; type: cell-based
# Protocol: For immunoblot analysis 10^7 Jurkat T cells or PBMC were used. Prior to the experiment, Jurkat cells were serum starved for 18 h in medium containing 0.2% FCS. Afterwards, cells were released with 10% FCS and treated as depicted. At the indicated time points, the cells were harvested, washed once with ice-cold PBS, resuspended in 1× lysis buffer (Cell Signaling Technology, Danvers, Mass.) containing protease inhibitors (2.5 mM sodium pyrophosphate, 1 mM β-glycerophosphate, 1 mM Na3VO4, 1 μg/ml leupeptin, 1 mM PMSF; Sigma) and sonicated with a micro tip sonifier on ice for 30 sec. Lysates were centrifuged at 10000×g for 10 min at 4° C. and supernatants were used for immunoblotting. Equal amounts of protein (determined by Bradford assay, BioRad) were separated by Tricine-SDS-PAGE and electrotransferred onto nitrocellulose membranes (BioRad). For detection, membranes were probed with primary antibodies anti-p27, anti-Cyclin D3, anti-Cyclin E, anti-c-Myc (Dianova, Hamburg, Germany), anti-Cdk2 (Santa-Cruz Biotechnology, Heidelberg, Germany), anti-phospho-AKT (Ser 473), anti-phospho-c-Raf (Ser 338), anti-phospho-p70S6K (Thr 389; Cell Signaling), anti-phospho-FKHRL1/Foxo3 (Thr 32; Upstate, Lake Placid, N.Y.), anti-Actin (Sigma) and anti-VacA (Austral Biologicals, San Ramon, Calif.). […] For detection of the large subunit of the HPGGT protein a polyclonal rabbit anti-GGT antibody raised against a synthesized peptide IQPDTVTPSSQIKPGM including amino acid residues 356 to 371 of the HP 1118 gene product (Charles River, Kisslegg, Germany) was used.
# human PBMCs = assay: Immunoblotting of cell cycle regulatory proteins in PBMC; type: cell-based; settings: 24 h and 48 h
# Protocol: FIG. 6B an SDS PAGE of the proteins obtained from 10^7 PBMC which were incubated with different concentrations of HPWT and HPΔGGTSN or rHPGGT for 24 h and 48 h and subsequently lysed. 35 μg of total protein were separated by SDS-PAGE and analyzed by immunoblotting. Levels of indicated proteins were determined using the corresponding antibodies. Data were reproduced 2 times with similar results. (HP=H. pylori, SN=supernatant, WT=wild-type).
# For immunoblot analysis 10^7 Jurkat T cells or PBMC were used. Prior to the experiment, Jurkat cells were serum starved for 18 h in medium containing 0.2% FCS. Afterwards, cells were released with 10% FCS and treated as depicted. At the indicated time points, the cells were harvested, washed once with ice-cold PBS, resuspended in 1× lysis buffer (Cell Signaling Technology, Danvers, Mass.) containing protease inhibitors (2.5 mM sodium pyrophosphate, 1 mM β-glycerophosphate, 1 mM Na3VO4, 1 μg/ml leupeptin, 1 mM PMSF; Sigma) and sonicated with a micro tip sonifier on ice for 30 sec. Lysates were centrifuged at 10000×g for 10 min at 4° C. and supernatants were used for immunoblotting. Equal amounts of protein (determined by Bradford assay, BioRad) were separated by Tricine-SDS-PAGE and electrotransferred onto nitrocellulose membranes (BioRad). […]
# [5] = incubation of the HPGGT with acivicin
# [6] = preincubation of HPWTSN with acivicin (50 μM) for 2 h at 37° C.
molecule,measurement,setting,value
"CN[C@@H]1C[C@H]2O[C@@](C)([C@@H]1OC)n1c3ccccc3c3c4c(c5c6ccccc6n2c5c31)C(=O)NC4 [staurosporin, reference compound]",apoptosis (positive control),Jurkat T cells [1],strongly induced apoptosis
"IQPDTVTPSSQIKPGM [peptide 356-371, peptide of HPGGT residues 356 to 371, far from the catalytic center]",inhibitory antibodies / inhibitory immune response against HPGGT in serum,HPGGT,No inhibitory immune response
N[C@H](C(=O)O)[C@@H]1CC(Cl)=NO1 [acivicin],catalytic activity of HPGGT after incubation with acivicin,[2]; [5],completely abolishes
same,GGT activity of H. pylori wild-type supernatants after pretreatment with acivicin,[2]; [6],abrogated; also recorded: completely repressed
same,inhibitory effect of the enzyme (HPGGT) towards lymphocytes after incubation with acivicin,human PBMC; [5],completely abolishes
same,inhibition of PBMC proliferation by H. pylori wild-type supernatants after pretreatment with acivicin,human PBMC; [6],abrogated; also recorded: completely repressed
B1,enzymatic GGT activity,"[3]; pH 8.0, 37° C., 30 min",strong GGT activity
same,pH range of catalytic activity,[3]; pH of assay buffer varied between 2 and 10,2-10
same,inhibition of PBMC proliferation,"human PBMC; PBMC stimulated with PMA/Ionomycin, 48 h",efficiently inhibited
same,inhibitory effect of HPGGT on lymphocyte proliferation in the absence of glutamine,human PBMC; medium without the amino acid glutamine,completely abolished
same,reduction of IL-2 secretion,IL-2,none of these treatments led to reduction
same,secretion of IFN-γ,IFN-γ,not reduced
same,Cyclin levels,Jurkat T cells [4]; 2 μg/ml,complete reduction
same,"cellular levels and phosphorylation of AKT, p70S6k and Foxo 3 (PI3K-signaling)",Jurkat T cells [4]; Jurkat T cells and PBMC,not reduced
same,cellular levels of c-Myc and phosphorylation of c-Raf (Ras-dependent pathway),Jurkat T cells [4]; Jurkat T cells and PBMC,reduced
same,"cell cycle regulating proteins (Cyclin D3, E1) in PBMC",human PBMCs,even stronger reduction
